Data from publication PMC2709796.

Biological target: human LRP purified from placenta (human)
Experiment: SPR

Kd: 0.0365 µM
koff: 0.00015 s⁻¹
kon: 4110 M⁻¹ s⁻¹
B1: hexa-His-tagged fragment of sorLA including the YWTD-repeated β-propeller, the single EGF-domain and the 11 CR-domains (residues 728-1526) (domain or fragment)
chain: YRKISGDTCSGGDVEARLEGELVPCPLAEENEFILYAVRKSIYRYDLASGATEQLPLTGLRAAVALDFDYEHNCLYWSDLALDVIQRLCLNGSTGQEVIINSGLETVEALAFEPLSQLLYWVDAGFKKIEVANPDGDFRLTIVNSSVLDRPRALVLVPQEGVMFWTDWGDLKPGIYRSNMDGSAAYHLVSEDVKWPNGISVDDQWIYWTDAYLECIERITFSGQQRSVILDNLPHPYAIAVFKNEIYWDDWSQLSIFRASKYSGSQMEILANQLTGLMDMKIFYKGKNTGSNACVPRPCSLLCLPKANNSRSCRCPEDVSSSVLPSGDLMCDCPQGYQLKNNTCVKQENTCLRNQYRCSNGNCINSIWWCDFDNDCGDMSDERNCPTTICDLDTQFRCQESGTCIPLSYKCDLEDDCGDNSDESHCEMHQCRSDEYNCSSGMCIRSSWVCDGDNDCRDWSDEANCTAIYHTCEASNFQCRNGHCIPQRWACDGDTDCQDGSDEDPVNCEKKCNGFRCPNGTCIPSSKHCDGLRDCSDGSDEQHCEPLCTHFMDFVCKNRQQCLFHSMVCDGIIQCRDGSDEDAAFAGCSQDPEFHKVCDEFGFQCQNGVCISLIWKCDGMDDCGDYSDEANCENPTEAPNCSRYFQFRCENGHCIPNRWKCDRENDCGDWSDEKDCGDSHILPFSTPGPSTCLPNYYRCSSGTCVMDTWVCDGYRDCADGSDEEACPLLANVTAASTPTQLGRCDRFEFECHQPKTCIPNWKRCDGHQDCQDGRDEANCPTHSTLTCMSREFQCEDGEA
